The record followed here is patent US12365732 (23ANDME, dated 2025).

In one assay the target is huCD96D1-Fc (human). Briefly: Octet, antibody on anti-Fc sensors. On the procedure: Domain Binding Site Mapping mAb1.v7 and h10G1 were determined to bind the D1 domain of CD96. Epitope mapping experiments were performed on an OctetRed96 by capturing the antibodies on anti-Fc Octet sensors (ForteBio) and testing their binding to recombinant huCD96D1-Fc and huCD96D1D3.
Background: Biolayer interferometry detects binding as a change in optical thickness at a sensor tip.

Assay [1] addresses T1, hu-CD96 (soluble, isoform 2 extracellular domain) (human, UniProt P40200 22-516, biotinylated in Octet and blocking ELISA).
T1 construct: the assays name only hu-CD96; also called hCD96; biotinylated hu-CD96
T1 sequence: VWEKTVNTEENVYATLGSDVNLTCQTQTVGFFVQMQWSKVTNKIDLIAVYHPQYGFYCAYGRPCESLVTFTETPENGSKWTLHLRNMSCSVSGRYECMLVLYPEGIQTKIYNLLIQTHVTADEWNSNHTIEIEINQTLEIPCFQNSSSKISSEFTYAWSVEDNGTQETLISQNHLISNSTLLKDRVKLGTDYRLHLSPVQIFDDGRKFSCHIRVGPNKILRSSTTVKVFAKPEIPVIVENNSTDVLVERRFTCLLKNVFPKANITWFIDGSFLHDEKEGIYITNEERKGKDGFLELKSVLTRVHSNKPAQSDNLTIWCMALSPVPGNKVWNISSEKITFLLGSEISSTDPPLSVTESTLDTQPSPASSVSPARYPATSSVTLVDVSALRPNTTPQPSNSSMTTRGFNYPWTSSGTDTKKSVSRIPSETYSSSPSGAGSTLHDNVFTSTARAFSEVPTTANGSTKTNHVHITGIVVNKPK
Briefly: SPR 25C, IgG on Protein A, CD96 analyte. As to the method:
(§1) SPR measurement with a BIACORE™ 8K instrument was performed to determine the monovalent binding affinity of mAb1.v7 and h10G1 IgG to hu-CD96, cy-CD96, and mo-CD96. Briefly, antibodies were diluted at 0.5 µg/mL in HBS-P buffer (0.01 M HEPES pH 7.4, 0.15 M NaCl, 0.005% Surfactant P20) and applied to the Protein A chip at 30 µL/min flow rate for 60 s in flow cell 2 (FC2). Then 3-fold serial dilutions of hu-CD96, cy-CD96, or mo-CD96 in HBS-P buffer (0.01 M HEPES pH 7.4, 0.15 M NaCl, 0.005% surfactant P20) from (0.4 nM) to high (100 nM) were injected (flow rate: 30 µL/min) at 25° C. to both flow cell 1 (FC1) and flow cell 2 (FC2). The sensorgram was recorded and subject to reference and buffer subtraction before evaluating by BIACORE® 8K Evaluation Software (version 1.1.1.7442). Association rates ($kon$) and dissociation rates ($koff$) were calculated using a simple one-to-one Langmuir binding model.

The target in assay [2] is T2, mo-CD96 (soluble, Table 5) (mouse, UniProt Q3U0X8 22-536, limits assumed).
T2 sequence (looked up): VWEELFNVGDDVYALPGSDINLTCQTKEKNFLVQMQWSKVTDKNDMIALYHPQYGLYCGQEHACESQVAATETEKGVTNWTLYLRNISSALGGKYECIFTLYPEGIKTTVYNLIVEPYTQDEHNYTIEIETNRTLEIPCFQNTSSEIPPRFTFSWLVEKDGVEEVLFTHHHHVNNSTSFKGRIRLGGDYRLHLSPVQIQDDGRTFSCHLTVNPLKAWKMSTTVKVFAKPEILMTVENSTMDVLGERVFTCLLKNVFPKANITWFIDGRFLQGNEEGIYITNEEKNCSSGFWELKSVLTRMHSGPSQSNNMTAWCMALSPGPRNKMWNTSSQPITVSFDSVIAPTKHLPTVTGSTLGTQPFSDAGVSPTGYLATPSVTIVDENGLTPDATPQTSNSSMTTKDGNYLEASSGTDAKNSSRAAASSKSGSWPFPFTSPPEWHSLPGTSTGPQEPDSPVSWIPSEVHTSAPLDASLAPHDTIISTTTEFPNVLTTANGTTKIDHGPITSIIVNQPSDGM
Put plainly: SPR 25C, IgG on Protein A, CD96 analyte. On the procedure: as §1

The target in assay [3] is T3, cynomolgus monkey CD96 on cynomolgus monkey PBMCs (cynomolgus monkey, UniProt A0A2K5TWV6 22-569).
T3 construct: whole, on cells
T3 sequence: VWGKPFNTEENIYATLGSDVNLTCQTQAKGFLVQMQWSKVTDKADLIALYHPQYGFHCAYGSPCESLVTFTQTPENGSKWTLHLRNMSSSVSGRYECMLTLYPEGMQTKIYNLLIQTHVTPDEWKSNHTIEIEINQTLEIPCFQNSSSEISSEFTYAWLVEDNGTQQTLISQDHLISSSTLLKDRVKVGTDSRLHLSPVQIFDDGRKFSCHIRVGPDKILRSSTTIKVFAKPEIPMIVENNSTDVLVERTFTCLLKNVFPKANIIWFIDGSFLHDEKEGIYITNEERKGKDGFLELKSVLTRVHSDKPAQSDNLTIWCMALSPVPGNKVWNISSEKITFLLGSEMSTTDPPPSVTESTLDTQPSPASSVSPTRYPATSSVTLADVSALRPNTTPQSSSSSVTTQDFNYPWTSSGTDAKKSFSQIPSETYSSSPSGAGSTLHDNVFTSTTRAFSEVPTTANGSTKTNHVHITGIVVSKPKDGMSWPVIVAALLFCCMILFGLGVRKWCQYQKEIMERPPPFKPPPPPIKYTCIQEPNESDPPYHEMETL
Put plainly: FACS, Ab 16 nM. On the procedure:
The ability of the anti-CD96 antibodies to bind primary immune cells from human and cynomolgus monkey with lower level of receptor expression was measured. Human PBMCs (StemCell Technologies, catalog #70025) and cynomolgus monkey PBMCs (Primate Biologicals, catalog #CM-MC) were incubated with human TruStain FcX (Biolegend, catalog #422302) for 10 minutes at 4° C., followed by incubation with an anti-CD96 antibody for 20 minutes at 4° C. Cells were washed and the anti-CD96 antibody binding was detected by incubation with anti-mouse IgG-PE (Thermo Fisher, catalog #M30204) or anti-human IgG (Fab) 2-PE (Thermo Fisher, catalog #H10104) for 20 minutes at 4° C. Cells were washed, and immune subtypes were labeled with anti-CD3 (BD, catalog #557705), anti-CD4 (Biolegend, catalog #317424) and anti-CD8 (BD, catalog #557760) for 20 minutes at 4° C. Cell binding was analyzed by flow cytometry with a CytoFLEX (Beckman Coulter). Binding curves were calculated as a percentage of cells positive for bound antibody in the cell type of interest.
A general note: In flow cytometry, cells or beads pass a laser one at a time.

Sequence of huCD96D1-Fc (human) (chain, as listed by the source limits assumed): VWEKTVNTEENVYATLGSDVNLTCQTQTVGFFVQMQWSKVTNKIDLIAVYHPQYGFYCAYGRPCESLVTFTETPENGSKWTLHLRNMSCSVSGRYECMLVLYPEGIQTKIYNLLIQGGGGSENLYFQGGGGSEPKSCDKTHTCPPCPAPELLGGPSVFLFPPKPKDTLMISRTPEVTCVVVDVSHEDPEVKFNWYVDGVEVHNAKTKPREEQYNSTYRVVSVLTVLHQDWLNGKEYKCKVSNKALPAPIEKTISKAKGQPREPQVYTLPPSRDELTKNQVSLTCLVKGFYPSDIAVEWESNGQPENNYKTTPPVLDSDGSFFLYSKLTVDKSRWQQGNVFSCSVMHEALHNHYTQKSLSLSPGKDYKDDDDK

B1: mAb1.v7 IgG (humanized 12F8) (antibody, V domains shown)
VH: EVQLVQSGAEVKKPGASVKVSCKASGFTFTNNWMHWVRQAPGQGLEWIGMIHPNSGITNINEKFKNRVTMTTDTSTSTAYMELRSLRSEDTAVYYCRSDGTYEGYFDYWGQGTLVTVSS
VL: DIQLTQSPSSLSASVGDRVTITCKASQNVGTAIVWYQQKPGKAPKVLIYSASTRYTGVPSRFSGSGSGTDFTLTISSLQPEDFATYYCQQYSSSPLTFGQGTKVEIKG
notes: human IgG1 N297G
One may read the Kd as the constant that tells how readily two partners part at equilibrium. Turning to B1, the binding result with huCD96D1-Fc is reported as “binds”. Further, the dissociation constant (Kd) was 4.49 nM in assay [1] and about 386 nM in assay [2].

B2: mAb1.v7.NGS9 IgG (antibody, V domains shown)
VH: EVQLVQSGAEVKKPGASVKVSCKASGFTFTNNFMHWVRQAPGQGLEWIGMIHANSGITNINEKFKNRVTMTTDTSTSTAYMELRSLRSEDTAVYYCRSDGVYEGYFDYWGQGTLVTVSS
VL: DIQLTQSPSSLSASVGDRVTITCKASQNVGTAIVWYQQKPGKAPKVLIYSASTRYTGVPSRFSGSGSGTDFTLTISSLQPEDFATYYCQQYSSSPLTFGQGTKVEIKG
notes: human IgG1 N297G
With B2, the “% positive” value in assay [3] was found to be 76.1%.

B3: mAb1.v7.NGS10 IgG (antibody, V domains shown)
VH: EVQLVQSGAEVKKPGASVKVSCKASGFTFTNNFMHWVRQAPGQGLEWIGFIHANSGITNINEKFKNRVTMTTDTSTSTAYMELRSLRSEDTAVYYCRSDGIYEGYFDYWGQGTLVTVSS
VL: DIQLTQSPSSLSASVGDRVTITCKASQNVGTAIVWYQQKPGKAPKVLIYSASTRYTGVPSRFSGSGSGTDFTLTISSLQPEDFATYYCQQYSSSPLTFGQGTKVEIKG
notes: human IgG1 N297G
For B3, the “% positive” value in assay [3] is 78.5%.

B4: mAb1.v7.NGS11 IgG (antibody, V domains shown)
VH: EVQLVQSGAEVKKPGASVKVSCKASGFTFTNNFMHWVRQAPGQGLEWIGFIHANSGITNINEKFKNRVTMTTDTSTSTAYMELRSLRSEDTAVYYCRSDGVYEGYFDYWGQGTLVTVSS
VL: DIQLTQSPSSLSASVGDRVTITCKASQNVGTAIVWYQQKPGKAPKVLIYSASTRYTGVPSRFSGSGSGTDFTLTISSLQPEDFATYYCQQYSSSPLTFGQGTKVEIKG
notes: human IgG1 N297G
For the molecule B4, the “% positive” value in assay [3] came out at 80.8%.

B5: h10G1 IgG (humanized 10G1) (antibody, V domains shown)
VH: EIQLVQSGSELKKPGASVKVSCKASGYPFTTYGMSWVRQAPGQGLEWMGWINTDSGVPTYADDFKGRFVFSLDTSVSTAYLQISSLKAEDTAVYFCARNIYYGWGNFDYWGQGTLVTVSS
VL: EIVMTQSPDFQSVTPKEKVTITCRASQDIYRNLHWYQQKPDQTPKLLIKHASDSISGIPSRFSGSGSGTDFTLTINSLEAEDAAAYYCLQGYSMPYTFGGGTKVEIKG
notes: human IgG1 N297G
As to B5, the “% positive” value in assay [3] is 66.1%. Moreover, the binding result with huCD96D1-Fc is “binds”; in assay [2], “no binding (tested: 100 nM highest)”. The “apparent Kd (pooled screen)” value in assay [1] is 1.17 nM.
